Measured values reported in the nanobody polyreactivity screen of Harvey et al. (2022).

Experiment: yeast display, Sf9 membrane polyspecificity reagent, FACS + sequencing; frameworks hold sequencing errors
How it was run: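 Nanobodies came from a synthetic yeast display library in Saccharomyces cerevisiae BJ5465, induced with galactose for 36–48 hours and stained for 1 hour at 4 °C with 10% biotinylated, detergent-solubilized Sf9 membrane reagent. Cells were enriched on streptavidin microbeads and then FACS-sorted, with low and high (top ~1%) gates set on anti-HA fluorescence for expression and streptavidin fluorescence for reagent binding. Each polyreactivity label reflects the gate a clone came from. Genes were amplified by colony PCR, sequenced by MiSeq 2 × 250 and filtered by CDR length.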

Row | Sequence | polyreactivity (PSR sort gate)
1 | QVQLVESGGGLVQAGGSLRLICPASGITFVYYAMVWYRQSPGKEMELVATNTKSGVSTYYADSVKGRFTISRDNAKNTVYLQMNSLKPEDTAVYYCAKEVSYRFYWTYDYWGQGTKVTVSS | low polyreactivity
2 | QVQLVESGGGLVQAGGSLRLIFAASGRTFFSYVMGWYIQAPGKERELVAAITWRGGSTYYADSVKGRFTISRDNAKNTVYLQMNSLKPEDTAVYYCAAPSHGSTSDRYYKFYYWGQGTQVTVSS | high polyreactivity
3 | QVQLVESGGGLVQAGGSLRLISAASGFIFKIYAMGWHRQAPGKERDLVAAISSGDNTNYADSVKGRFTISRDNAKNTVYLQMNSLKPEDTAVYYCADRAYRWRSFSTMYYWGQGTQVTVSS | high polyreactivity
4 | QVQLVESGGGLVQAGGSLRLISAASGGISSLNAMGWYSQAPGKERELVAAIDWIGGSTYYADSVKGRFTISRDTAKNTVYLQKNSLKPEDTAVYYCGKRGVYGDRYYYWGQGTQVTVSS | high polyreactivity
5 | QVQLVESGGGLVQAGGSLRLISAASGLIFKWYGMVWYRQAPGKEREFVAAITSSGTSTYYADSVKGRFTISRDNAKNTVDLHMNSLKPEDTAVYYCNARTKHRYEYDYWGQGTQVTVSS | high polyreactivity
6 | QVQLVESGGGLVQAGGSLRLISAASGSIFERYAMGWYRQAPGKERELVAAITWTGGSTYYADSVKGRFTISRDNAKNTVYLQMNSLKPEDTAVYYCAADYLYPLWGWYDYWGQGTQVTVSS | low polyreactivity
7 | QVQLVESGGGLVQAGGSLRLISAASGSIFYRNAMGWYRQAPGKERDLVAAISSDGSTNYADSVKGRFTISRDNAKNTVYLQMNSLKPEDTAVYYCAAPWTQILDFWGQGTQVTVSS | low polyreactivity
8 | QVQLVESGGGLVQAGGSLRLISAASGSSFSSYAMGWYRQAPGKERDLVAAISWRGGSTYYADSVKGRFTISRDNAKNTVYLQMNSLKTEDTAVYFCAKLVRGVGTEMYYWGQGTQVTVSS | high polyreactivity
9 | QVQLVESGGGLVQAGGSLRLLCAASGSTIVTNAMGWYRQAPGKERELVAAITSSDGITYYADSVKGRFTISRDNAKNTVYLQMNSLKPEDTAVYYCAAELVSVRYLYALHDRDYWGQGTQVTVSS | low polyreactivity
10 | QVQLVESGGGLVQAGGSLRLNCAASGGIFRGYAMVWYRQAPGKERELVATITYSGTSTYYADSVKGRFTISRDYAKNTVYLQMNSLKPEYTAVYYCNADWWFKYDYWGQGTQVTVSS | low polyreactivity
11 | QVQLVESGGGLVQAGGSLRLNCAASGRSFQSYAMGWYRTAPGKERELVAAITWSGGDTYYADSVKGRFTISRDNAKNTVYLQMNSLKPEDTAVYYCAKEQGLYSVSPYDYWGQGTQVTVSS | low polyreactivity
12 | QVQLVESGGGLVQAGGSLRLNCAASGRTLVLYVMGWYRQAPGKERELVAAISRSGGRTYYADSVKGRFTISRDNAKNTVYLQMNSLKPEDTAVYYCAAYTSYASDYWGQGTLVTVSS | high polyreactivity
13 | QVQLVESGGGLVQAGGSLRLNCAASGSIFDDYAMGWYRQAPGKERELVAAINIRTGSTYYADSVKGRFTISRDNAKNTVYLQMHSLKPEDTEVYYCNRVVRGFVRHLDYWGQGTQVTVSS | low polyreactivity
14 | QVQLVESGGGLVQAGGSLRLRCAASGFIFRWYAMGWYRQAPGKERELVARISNGGSTYYADSVKGRFTISRDNAKKTVYLQMNSLKPEDTAVYYCAARLPYGYYSAGYYYWGQGTQVTVSS | high polyreactivity
15 | QVQLVESGGGLVQAGGSLRLRCAASGFILYPYAMGWYRQAPGKERELVAAITSRGGRTYYADSVKGRFTISRDKAKHSVYFQMNSLKPEDTAVFYCAAKRTCNYAPLKYYSWGQGTQVTVSS | high polyreactivity
16 | QVQLVESGGGLVQAGGSLRLRCAASGFTFRYYAMGWYRQAPGKERELVASTYYADSVKGRFTISRDNAKNTVYLQMNSLKPEDTAVYYCNVDGTSSSPFVQKHKEMDYWGQGTQVTVSS | low polyreactivity
17 | QVQLVESGGGLVQAGGSLRLRCAASGFTFYHYAMGWYRQAPGKERELVAAITWSGGDTYYADSVKGRFTISRDNAKNTVYLQMNSLKPEDTAVYYCNADDPPGAPYYDSFDYRGDYWGQGTQVTVSS | low polyreactivity
18 | QVQLVESGGGLVQAGGSLRLRCAASGFTIWPYAMGWYRQAPGKERELVAGITRKGGSTYYADSVKGRFTISRDNAKNTVYLQMNSLKPEDTAVYYCNTKYAVEIDYWGQGTQVTVSS | low polyreactivity
19 | QVQLVESGGGLVQAGGSLRLRCAASGFTLRLYTMAWYRQAPGQERELVAAINKRGGSTYYADSVKGRFTISRDNAKNSVYLQMISLKPEDTAVYYCANVPGYKAYEYDYWGQGTQVTVSS | high polyreactivity
20 | QVQLVESGGGLVQAGGSLRLRCAASGINFGYYAMGWYRQAPGKERELVAAITSGASTDYADSVKGRFTISRDNAKNTVYLQMNSLKPEDTAVYYCNADTSASTYTFPFDYCGQGTQVTVSS | low polyreactivity
21 | QVQLVESGGGLVQAGGSLRLRCAASGLTFRYYAMGWYRQAPGKERELVAAISRTGRTNYSDSVKGRFTISRDNAKNTVYLQMNSLKPEDTAVYYCAATGIYAKALLWYDYWGQGTQVTVSS | high polyreactivity
22 | QVQLVESGGGLVQAGGSLRLRCAASGLTFVRYTMGWYRPAPGKERELVAAITYSDASTYYADSVKGRFTISRDNAKNTVYLQKNSLKPEDTAVYYCAAVYFGGPRSNSPYSRYGYWGQGTQVTVSS | low polyreactivity

Row | Sequence | polyreactivity (PSR sort gate)
23 | QVQLVESGGGLVQAGGSLRLRCAASGLTFWGYPMGWYRQAPGKEREFVASITSGGGSTYYADSVKGRFTISRDNAKNTVYLQMNILNPEDTAVYYCNVDVHLYLYKSYTYRYYYWGQGTQVTVSS | low polyreactivity
24 | QVQLVESGGGLVQAGGSLRLRCAASGRIFDYYAMGWYRPAPGNERELVAALSSSVGNTYYADSVKGRFTISRDNAKNTVYLQMNSLKPEDTAVYYCADNYYVRSSYEVEYDYWGQGTQVTVSS | low polyreactivity
25 | QVQLVESGGGLVQAGGSLRLRCAASGRIFPDNAMGGYRQAPGKERELVAAITYSGGSTSYADSVKGRFTISRDNAKNTVYLQMNRLKPEDTAVYYCIKAGGTSYDYVRVDKFPGVYWGQGTQVTVSS | low polyreactivity
26 | QVQLVESGGGLVQAGGSLRLRCAASGRIFRLYDMGWYRHAPGKEREFVAAISSSGDSTYYADSVKGRFTISRDNAKNTVYLQMNSLKPEDTAVYYCAAVTRRYVLSTFYYWGQGTQVTVSS | high polyreactivity
27 | QVQLVESGGGLVQAGGSLRLRCAASGRIFRSYAMGWYRQAPGKEWEMVAAITSGTRTNYADSVKGRCTISRDNAKNTVYLQMNSLKPEDTAVSYCAARGSGFPPYRTRNYWGQGTQVTVSS | high polyreactivity
28 | QVQLVESGGGLVQAGGSLRLRCAASGRIFTYYTMGWYIQAAGKEMELDANITTGGSTNYADSVKGRFTISRDNAENTVYLQMNSLKPEDSAVYYCNKDGVVEVRFTGRHEYDYWGQGTQVTVSS | low polyreactivity
29 | QVQLVESGGGLVQAGGSLRLRCAASGRIFVHYVMVWSRQAPGKEREFVAAITIGSTYADSVKGRFTISRDNAKNTVYLQMNSLKPEDTAVYYCNARWVVNVRTQGSPPYKYDYWGQGSQVTVSS | low polyreactivity
30 | QVQLVESGGGLVQAGGSLRLRCAASGRIFYSNTMGWYRQAPGKERELVADITSGGSTKYADSVKGRFTISRDNAKNTVYLQMISLKPEDTAVYYCAAGERYDWWYGGFQGYDYWGQGTQVTVSS | high polyreactivity
31 | QVQLVESGGGLVQAGGSLRLRCAASGRTFAVYAMGWYRQAPGKERELVAAITLGASRTYYADSVKGRFTISRDNAKNTVYLQMNSLKPEDTAVYYCAVTWGARTDQWSLRVFVGYDYWGQGTQVTVSS | low polyreactivity
32 | QVQLVESGGGLVQAGGSLRLRCAASGRTFDGYAMGWYRQAHGKERELVAAISKRGGSTYYADSVKGRCTISRDNAKNSVYFQMNSLKPEDTAVYYCNKRYFGDQTWVGGDSWGQGTQVTVSS | high polyreactivity
33 | QVQLVESGGGLVQAGGSLRLRCAASGRTFGEYTMGWYRQAPGKERELVAAISSAGRTNYADSVKGRFTISRDNAKNTVYLQMNSLKPEDSGVYYCAADWTDDVRGYDYWGQGTQVTVSS | low polyreactivity
34 | QVQLVESGGGLVQAGGSLRLRCAASGRTFRTYTMGWYRKAPGKERELVAAISYSGGSTYYADSVKGRFTISRDNAKNTVYLQMNSLKPEDTAVYYCAIRPYPYKYDYWGQGTQVTVSS | high polyreactivity
35 | QVQLVESGGGLVQAGGSLRLRCAASGRTFWVNAMGCDRQAPGTERELVAGITFRGGSTDYADSVKGRFTISRDNAQNTVYLQMNRLKPEDTAVDDCAARVYRYGAMDYWGQGTQVTVSS | high polyreactivity
36 | QVQLVESGGGLVQAGGSLRLRCAASGRTFYGYAMGWYRQAPGKEREFVAAITYTGGRTYYADSVKGRFTISRDNAKNTVYLQMNSLKPEDTAVYYCNAYYYYVNQGRFEYGYWGQGTQVTVSS | high polyreactivity
37 | QVQLVESGGGLVQAGGSLRLRCAASGRTFYYAMGWYRQAPGKERYADSVKGRFTISRDNAKNTVYLQMNSLKPEDTAVYYCAAKVPDPPSLDESDYWGQVTQVTVSS | low polyreactivity
38 | QVQLVESGGGLVQAGGSLRLRCAASGRTLVAYAMGWYRQAPGKERELVAAIDTDTGITYYADSVKGRFTISRDNAKNTVYLQMNSLKPEDTAVYYCAAETYYAVSTGYDFDYWGQGTQVTVSS | high polyreactivity
39 | QVQLVESGGGLVQAGGSLRLRCAASGSIFFRYAMGWYRQAPGKERELVANISSGGGNTYYADSVKGRFTISRDNAKNTVYLQMNSLKPEDTAVYYCARRLATRGHTYDYWGQGTQVTVSS | low polyreactivity
40 | QVQLVESGGGLVQAGGSLRLRCAASGSIFVYYAMGWYRQAPGKERELVAAITWRGDNTYYADSVKGRFTISRDNAKNSVYLQMNSLKPEDTAVYYCAADSYTSIFDYWGQGTQVTVSS | low polyreactivity
41 | QVQLVESGGGLVQAGGSLRLRCAASGSIFYRNAMGWNRQAPGKERELVSANTRTGGSTYYADSVQARFTISRDNAKNTVYLQMNSLKPEDTAVYYCPAETWYRWPRSAWRFDYWGQGTQVNVSS | high polyreactivity
42 | QVQLVESGGGLVQAGGSLRLRCAASGSTFAYYAMGWYRQAPGKEREFVATITWTGGSTNYADSVKARFTISRDNAKNTVYLQMNSLKPEDTAVYYCAAAFVISYDYWGQGTQVTVSS | high polyreactivity
43 | QVQLVESGGGLVQAGGSLRLRCAASGSTFDVYAMGWYRQAPGKERELVASISITDGSTYYADSVKGRFTISRDNAKNTVYLQMNSLIPEVTAVYYCAAEYHTLSKYSGYATHVYWGQGTQVTVSS | low polyreactivity
